The text below walks through data of article PMC8591539 (The EMBO Journal, 2021).

In this assay the target is RBX1 (human, UniProt P62877 1-108). Description: cryo-EM structure.

B1: DDB1- and CUL4-associated factor 1 (DCAF1), full length, wild type (natural protein)
chain: not shown
Consider B1, for which the binding result was “binds”.
